Source: US20160153985A1

Experiments:
[1] = target: pure human iC3b (Complement Technology, A115) (human) (UniProt P01024); test: sandwich ELISA, capture A209 (Example 5), goat anti-C3-HRP; TABLE 6 well E6, 20% vitreous
[2] = target: pure human iC3b (Complement Technology, A115) (human) (UniProt P01024); test: sandwich ELISA, capture A209 (Example 5), goat anti-C3-HRP; TABLE 6 well A2, blocker
[3] = target: pure human iC3b (Complement Technology, A115) (human) (UniProt P01024); test: sandwich ELISA, capture A209 (Example 5), goat anti-C3-HRP; TABLE 6 well A3, blocker
[4] = target: pure human iC3b (Complement Technology, A115) (human) (UniProt P01024); test: sandwich ELISA, capture A209 (Example 5), goat anti-C3-HRP; TABLE 7, iC3b in 30% vitreous
[5] = target: pure human iC3b (Complement Technology, A115) (human) (UniProt P01024); test: sandwich ELISA, capture A209 (Example 5), goat anti-C3-HRP; TABLE 7, iC3b in 10% vitreous
[6] = target: pure human iC3b (Complement Technology, A115) (human) (UniProt P01024); test: sandwich ELISA, capture A209 (Example 5), goat anti-C3-HRP; TABLE 6 well H2, 10% vitreous
[7] = target: pure human iC3b (Complement Technology, A115) (human) (UniProt P01024); test: sandwich ELISA, capture A209 (Example 5), goat anti-C3-HRP; TABLE 6 well G7, 10% vitreous
[8] = target: pure human iC3b (Complement Technology, A115) (human) (UniProt P01024); test: sandwich ELISA, capture A209 (Example 5), goat anti-C3-HRP; TABLE 6 well E3, 20% vitreous
[9] = target: pure human iC3b (Complement Technology, A115) (human) (UniProt P01024); test: sandwich ELISA, capture A209 (Example 5), goat anti-C3-HRP; TABLE 6 well F9, 20% vitreous
[10] = target: pure human iC3b (Complement Technology, A115) (human) (UniProt P01024); test: sandwich ELISA, capture A209 (Example 5), goat anti-C3-HRP; TABLE 6 well B5, blocker
[11] = target: pure human iC3b (Complement Technology, A115) (human) (UniProt P01024); test: sandwich ELISA, capture A209 (Example 5), goat anti-C3-HRP; TABLE 6 well D7, 30% vitreous
[12] = target: pure human iC3b (Complement Technology, A115) (human) (UniProt P01024); test: sandwich ELISA, capture A209 (Example 5), goat anti-C3-HRP; TABLE 6 well C2, 30% vitreous
[13] = target: pure human iC3b (Complement Technology, A115) (human) (UniProt P01024); test: sandwich ELISA, capture A209 (Example 5), goat anti-C3-HRP; TABLE 6 well E7, 20% vitreous
[14] = target: pure human iC3b (Complement Technology, A115) (human) (UniProt P01024); test: sandwich ELISA, capture A209 (Example 5), goat anti-C3-HRP; TABLE 6 well G8, 10% vitreous
[15] = target: pure human iC3b (Complement Technology, A115) (human) (UniProt P01024); test: sandwich ELISA, capture A209 (Example 5), goat anti-C3-HRP; TABLE 6 well E8, 20% vitreous
[16] = target: pure human iC3b (Complement Technology, A115) (human) (UniProt P01024); test: sandwich ELISA, capture A209 (Example 5), goat anti-C3-HRP; TABLE 6 well H6, 10% vitreous
[17] = target: pure human iC3b (Complement Technology, A115) (human) (UniProt P01024); test: sandwich ELISA, capture A209 (Example 5), goat anti-C3-HRP; TABLE 6 well E4, 20% vitreous
[18] = target: pure human iC3b (Complement Technology, A115) (human) (UniProt P01024); test: sandwich ELISA, capture A209 (Example 5), goat anti-C3-HRP; TABLE 6 well F3, 20% vitreous
[19] = target: pure human iC3b (Complement Technology, A115) (human) (UniProt P01024); test: sandwich ELISA, capture A209 (Example 5), goat anti-C3-HRP; TABLE 6 well C9, 30% vitreous

Sequence of UniProt P01024 (P01024 23-667 limits assumed, chain 1 of 3): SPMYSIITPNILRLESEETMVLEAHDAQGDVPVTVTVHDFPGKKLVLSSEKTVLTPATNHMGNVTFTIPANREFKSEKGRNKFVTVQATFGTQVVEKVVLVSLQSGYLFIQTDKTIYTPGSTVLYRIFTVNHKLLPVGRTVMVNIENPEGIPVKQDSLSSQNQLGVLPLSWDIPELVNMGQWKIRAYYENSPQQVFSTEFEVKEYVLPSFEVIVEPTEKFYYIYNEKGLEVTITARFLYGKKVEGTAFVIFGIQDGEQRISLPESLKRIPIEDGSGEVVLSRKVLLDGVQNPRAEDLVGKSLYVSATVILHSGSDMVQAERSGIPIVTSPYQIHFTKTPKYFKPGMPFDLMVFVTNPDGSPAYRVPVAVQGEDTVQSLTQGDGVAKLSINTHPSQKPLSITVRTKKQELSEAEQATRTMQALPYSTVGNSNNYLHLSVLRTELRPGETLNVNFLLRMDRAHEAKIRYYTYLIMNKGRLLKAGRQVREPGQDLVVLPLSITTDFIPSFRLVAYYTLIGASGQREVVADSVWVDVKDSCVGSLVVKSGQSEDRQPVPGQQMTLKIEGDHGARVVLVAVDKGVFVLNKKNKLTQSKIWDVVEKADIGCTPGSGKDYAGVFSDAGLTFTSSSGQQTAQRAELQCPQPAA
Sequence of UniProt P01024 (P01024 749-1303 limits assumed, chain 2 of 3): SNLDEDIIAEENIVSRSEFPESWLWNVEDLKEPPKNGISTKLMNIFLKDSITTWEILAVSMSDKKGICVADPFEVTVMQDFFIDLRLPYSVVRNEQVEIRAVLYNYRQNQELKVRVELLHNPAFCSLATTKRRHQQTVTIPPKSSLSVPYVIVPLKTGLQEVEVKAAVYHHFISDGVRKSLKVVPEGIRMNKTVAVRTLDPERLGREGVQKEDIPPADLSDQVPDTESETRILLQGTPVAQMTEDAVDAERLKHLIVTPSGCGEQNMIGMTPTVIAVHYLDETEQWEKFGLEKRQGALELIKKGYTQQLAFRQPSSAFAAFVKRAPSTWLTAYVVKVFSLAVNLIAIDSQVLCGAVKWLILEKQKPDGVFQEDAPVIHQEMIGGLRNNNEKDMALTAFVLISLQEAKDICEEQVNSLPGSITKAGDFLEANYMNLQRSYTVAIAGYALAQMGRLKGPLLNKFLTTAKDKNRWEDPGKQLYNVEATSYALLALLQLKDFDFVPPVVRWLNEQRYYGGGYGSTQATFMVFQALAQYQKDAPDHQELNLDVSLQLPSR
Sequence of UniProt P01024 (P01024 1321-1663 limits assumed, chain 3 of 3): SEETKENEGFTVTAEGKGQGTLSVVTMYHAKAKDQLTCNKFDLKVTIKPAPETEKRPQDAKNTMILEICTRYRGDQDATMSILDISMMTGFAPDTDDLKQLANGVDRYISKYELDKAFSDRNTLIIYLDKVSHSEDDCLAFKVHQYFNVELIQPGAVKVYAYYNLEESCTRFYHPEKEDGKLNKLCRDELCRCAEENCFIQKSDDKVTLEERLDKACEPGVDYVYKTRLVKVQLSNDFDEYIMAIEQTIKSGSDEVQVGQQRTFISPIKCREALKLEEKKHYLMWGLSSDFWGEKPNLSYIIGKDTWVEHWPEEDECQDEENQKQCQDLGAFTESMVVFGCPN

## mouse anti-iC3b antibody A209 (Quidel)
[1]
  raw A450 at iC3b 0.063 ug/ml: 0.353 OD
[2]
  raw A450 at iC3b 1 ug/ml: 0.371 OD
[3]
  raw A450 at iC3b 0.5 ug/ml: 0.258 OD
[4]
  A450 minus matrix average at iC3b 0.0078 ug/ml: 0.0042 OD
  A450 minus matrix average at iC3b 0.016 ug/ml: -0.02 OD
  A450 minus matrix average at iC3b 0.031 ug/ml: -0.005 OD
  A450 minus matrix average at iC3b 0.063 ug/ml: 0.008 OD
  A450 minus matrix average at iC3b 0.125 ug/ml: 0.027 OD
  A450 minus matrix average at iC3b 0.25 ug/ml: 0.051 OD
  A450 minus matrix average at iC3b 0.5 ug/ml: 0.045 OD
  A450 minus matrix average at iC3b 1 ug/ml: 0.087 OD
[5]
  A450 minus matrix average at iC3b 0.0078 ug/ml: -0.008 OD
  A450 minus matrix average at iC3b 0.016 ug/ml: 0.006 OD
  A450 minus matrix average at iC3b 0.031 ug/ml: 0.014 OD
  A450 minus matrix average at iC3b 0.063 ug/ml: 0.017 OD
  A450 minus matrix average at iC3b 0.125 ug/ml: 0.062 OD
  A450 minus matrix average at iC3b 0.25 ug/ml: 0.056 OD
  A450 minus matrix average at iC3b 0.5 ug/ml: 0.125 OD
  A450 minus matrix average at iC3b 1 ug/ml: 0.239 OD
[6]
  raw A450 at iC3b 1 ug/ml: 0.42 OD
[7]
  raw A450 at iC3b 0.031 ug/ml: 0.248 OD
[8]
  raw A450 at iC3b 0.5 ug/ml: 0.442 OD
[9]
  raw A450 at iC3b 0.0078 ug/ml: 0.38 OD
[10]
  raw A450 at iC3b 0.125 ug/ml: 0.1 OD
[11]
  raw A450 at iC3b 0.031 ug/ml: 0.356 OD
[12]
  raw A450 at iC3b 1 ug/ml: 0.443 OD
[13]
  raw A450 at iC3b 0.031 ug/ml: 0.339 OD
[14]
  raw A450 at iC3b 0.016 ug/ml: 0.227 OD
[15]
  raw A450 at iC3b 0.016 ug/ml: 0.321 OD
[16]
  raw A450 at iC3b 0.063 ug/ml: 0.23 OD
[17]
  raw A450 at iC3b 0.25 ug/ml: 0.411 OD
[18]
  raw A450 at iC3b 0.5 ug/ml: 0.45 OD
[19]
  raw A450 at iC3b 0.0078 ug/ml: 0.368 OD
